Measured values as given in article PMC3728543, “Structure-Based Mechanism for Early PLP-Mediated Steps of Rabbit Cytosolic Serine Hydroxymethyltransferase Reaction” (BioMed Research International, 2013).
Changes are numbered by the printed parent chain. Names and notes keep the numbering of the source.

B1: rabbit cytosolic serine hydroxymethyltransferase, wild type (enzyme, UniProt P07511 1-484, looked up)
chain: MATAVNGAPRDAALWSSHEQMLAQPLKDSDAEVYDIIKKESNRQRVGLELIASENFASRAVLEALGSCLNNKYSEGYPGQRYYGGTEHIDELETLCQKRALQAYGLDPQCWGVNVQPYSGSPANFAVYTALVEPHGRIMGLDLPDGGHLTHGFMTDKKKISATSIFFESMAYKVNPDTGYIDYDRLEENARLFHPKLIIAGTSCYSRNLDYGRLRKIADENGAYLMADMAHISGLVVAGVVPSPFEHCHVVTTTTHKTLRGCRAGMIFYRRGVRSVDPKTGKEILYNLESLINSAVFPGLQGGPHNHAIAGVAVALKQAMTPEFKEYQRQVVANCRALSAALVELGYKIVTGGSDNHLILVDLRSKGTDGGRAEKVLEACSIACNKNTCPGDKSALRPSGLRLGTPALTSRGLLEKDFQKVAHFIHRGIELTVQIQDDTGPRATLKEFKEKLAGDEKHQRAVRALRQEVESFAALFPLPGLPGF
modifications: pyridoxal 5'-phosphate bound as internal aldimine to the epsilon-amino group of Lys257
notes: rabbit cytosolic serine hydroxymethyltransferase (rcSHMT, EC 2.1.2.1); cDNA in the pET22b vector; the wild type probably came the same way; also called rcSHMT; wild type rcSHMT
B2: rabbit cytosolic serine hydroxymethyltransferase T254A mutant (enzyme, UniProt P07511 1-484, looked up)
chain: B1 chain with T254A
modifications: pyridoxal 5'-phosphate bound to Lys257 (internal aldimine; gem-diamine with glycine or L-serine)
notes: rabbit cytosolic serine hydroxymethyltransferase (rcSHMT) with T254A; cDNA in the pET22b vector; numbering is that for rcSHMT; also called T254A rcSHMT
B3: rabbit cytosolic serine hydroxymethyltransferase T254C mutant (enzyme, UniProt P07511 1-484, looked up)
chain: B1 chain with T254C
modifications: pyridoxal 5'-phosphate bound to Lys257 (internal aldimine; gem-diamine with glycine or L-serine)
notes: rabbit cytosolic serine hydroxymethyltransferase (rcSHMT) with T254C; cDNA in the pET22b vector; numbering is that for rcSHMT; also called T254C rcSHMT

Biological target: the molecule itself
Experiment: crystal structure; crystals from 2-3% PEG4000, 20 mM K2HPO4/KH2PO4, 50 mM potassium MES or sodium HEPES pH 7.0, room temperature, protein 50 mg/mL; unliganded or with 60 mM glycine or L-serine; space group P41 with a tetramer per asymmetric unit (T254C-glycine: P41212, a dimer per asymmetric unit)

Stoichiometry N, 4:
B1
B2
B3
